The chains are these.
B1: library; numbered along this chain (parent)
chain: MAAAGGARLLRAASAVLGGPAGRWLHHAGSRAGSSGLLRNRGPGGSAEASRSLSVSARARSSSEDKITVHFINRDGETLTTKGKVGDSLLDVVVENNLDIDGFGACEGTLACSTCHLIFEDHIYEKLDAITDEENDMLDLAYGLTDRSRLGCQICLTKSMDNMTVRVPETVADARQSIDVGKTS

Variants of B1 are the subject of this series. Kind of series: scaled log2 fold change in cell abundance, elesclomol vs control (0 = silent mean, 1 = nonsense mean) (scaled log2 ratio); higher = higher viability under elesclomol (loss of FDX1 cuproptosis function). The conditions noted are these: glucose 10 mM. How it is done:
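Deep mutational scan of full-length human FDX1: a pooled saturation-mutagenesis ORF library (every residue 2-184 mutated to all 19 amino acids plus stop, and silent codons where available) was expressed by lentivirus in FDX1-knockout ABC1 (14 days) or HEK293T (11 days) cells grown with elesclomol (ES) or DMSO control. Variant abundance came from ORF sequencing. The log2 fold change (ES vs control, mean of duplicates) was centred on the silent-variant mean (0) and scaled to the nonsense-variant mean (1). Higher values mean greater viability under ES, i.e. loss of FDX1 function in cuproptosis.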

The mark [1] stands for this setting: with ABC1 FDX1 KO, elesclomol 5 nM, 14 days.
Where [2] appears, read: with HEK293T FDX1 KO, elesclomol 40 nM, 11 days.
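Also: variant abundance is its share of total variant reads in each endpoint sample, from next-generation sequencing of the integrated ORF PCR-amplified out of genomic DNA.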

As to MAAAGGARLLRAASAVLGGPAGRWLHHAGSRAGSSGLLRNRGPGGSAEASRSLVVSARARSSSEDKITVHFINRDGETLTTKGKVGDSLLDVVVENNLDIDGFGACEGTLACSTCHLIFEDHIYEKLDAITDEENDMLDLAYGLTDRSRLGCQICLTKSMDNMTVRVPETVADARQSIDVGKTS [S54V], the “scaled log2 fold change” value reads like this: under setting [1], -0.108; under setting [2], -1.29.

Consider MAAAGGARLLRAASAVLGGPAGRWLHHAGSRAGSSGLLRNRGPGGSAEASRSLTVSARARSSSEDKITVHFINRDGETLTTKGKVGDSLLDVVVENNLDIDGFGACEGTLACSTCHLIFEDHIYEKLDAITDEENDMLDLAYGLTDRSRLGCQICLTKSMDNMTVRVPETVADARQSIDVGKTS [S54T], for which the “scaled log2 fold change” value reads like this: under setting [1], 0.484; under setting [2], -0.46.

For MAAAGGARLLRAASAVLGGPAGRWLHHAGSRAGSSGLLRNRGPGGSAEASRSLWVSARARSSSEDKITVHFINRDGETLTTKGKVGDSLLDVVVENNLDIDGFGACEGTLACSTCHLIFEDHIYEKLDAITDEENDMLDLAYGLTDRSRLGCQICLTKSMDNMTVRVPETVADARQSIDVGKTS [S54W], the “scaled log2 fold change” value was 0.208 under setting [1] and -0.341 under setting [2]. The like results for MAAAGGARLLRAASAVLGGPAGRWLHHAGSRAGSSGLLRNRGPGGSAEASRSLQVSARARSSSEDKITVHFINRDGETLTTKGKVGDSLLDVVVENNLDIDGFGACEGTLACSTCHLIFEDHIYEKLDAITDEENDMLDLAYGLTDRSRLGCQICLTKSMDNMTVRVPETVADARQSIDVGKTS [S54Q] were, in that order, 0.175 and 1.12. On to MAAAGGARLLRAASAVLGGPAGRWLHHAGSRAGSSGLLRNRGPGGSAEASRSLYVSARARSSSEDKITVHFINRDGETLTTKGKVGDSLLDVVVENNLDIDGFGACEGTLACSTCHLIFEDHIYEKLDAITDEENDMLDLAYGLTDRSRLGCQICLTKSMDNMTVRVPETVADARQSIDVGKTS [S54Y], for which the “scaled log2 fold change” value is, setting by setting: under setting [1], -0.0125; under setting [2], -0.0955. The corresponding values for MAAAGGARLLRAASAVLGGPAGRWLHHAGSRAGSSGLLRNRGPGGSAEASRSLRVSARARSSSEDKITVHFINRDGETLTTKGKVGDSLLDVVVENNLDIDGFGACEGTLACSTCHLIFEDHIYEKLDAITDEENDMLDLAYGLTDRSRLGCQICLTKSMDNMTVRVPETVADARQSIDVGKTS [S54R] are 0.322 and -0.406. As to MAAAGGARLLRAASAVLGGPAGRWLHHAGSRAGSSGLLRNRGPGGSAEASRSLSPSARARSSSEDKITVHFINRDGETLTTKGKVGDSLLDVVVENNLDIDGFGACEGTLACSTCHLIFEDHIYEKLDAITDEENDMLDLAYGLTDRSRLGCQICLTKSMDNMTVRVPETVADARQSIDVGKTS [V55P], the “scaled log2 fold change” value is, setting by setting: under setting [1], -0.481; under setting [2], 1.06. For the variant MAAAGGARLLRAASAVLGGPAGRWLHHAGSRAGSSGLLRNRGPGGSAEASRSLSKSARARSSSEDKITVHFINRDGETLTTKGKVGDSLLDVVVENNLDIDGFGACEGTLACSTCHLIFEDHIYEKLDAITDEENDMLDLAYGLTDRSRLGCQICLTKSMDNMTVRVPETVADARQSIDVGKTS [V55K], the “scaled log2 fold change” value is -0.469 under setting [1] and -0.443 under setting [2].

For the variant MAAAGGARLLRAASAVLGGPAGRWLHHAGSRAGSSGLLRNRGPGGSAEASRSLSISARARSSSEDKITVHFINRDGETLTTKGKVGDSLLDVVVENNLDIDGFGACEGTLACSTCHLIFEDHIYEKLDAITDEENDMLDLAYGLTDRSRLGCQICLTKSMDNMTVRVPETVADARQSIDVGKTS [V55I], the “scaled log2 fold change” value is, setting by setting: under setting [1], 0.323; under setting [2], 1.26. Turning to MAAAGGARLLRAASAVLGGPAGRWLHHAGSRAGSSGLLRNRGPGGSAEASRSLSGSARARSSSEDKITVHFINRDGETLTTKGKVGDSLLDVVVENNLDIDGFGACEGTLACSTCHLIFEDHIYEKLDAITDEENDMLDLAYGLTDRSRLGCQICLTKSMDNMTVRVPETVADARQSIDVGKTS [V55G], the “scaled log2 fold change” value runs as follows: under setting [1], 0.169; under setting [2], -0.106. Consider MAAAGGARLLRAASAVLGGPAGRWLHHAGSRAGSSGLLRNRGPGGSAEASRSLSLSARARSSSEDKITVHFINRDGETLTTKGKVGDSLLDVVVENNLDIDGFGACEGTLACSTCHLIFEDHIYEKLDAITDEENDMLDLAYGLTDRSRLGCQICLTKSMDNMTVRVPETVADARQSIDVGKTS [V55L], for which the “scaled log2 fold change” value under setting [1] is -0.283.

For MAAAGGARLLRAASAVLGGPAGRWLHHAGSRAGSSGLLRNRGPGGSAEASRSLSESARARSSSEDKITVHFINRDGETLTTKGKVGDSLLDVVVENNLDIDGFGACEGTLACSTCHLIFEDHIYEKLDAITDEENDMLDLAYGLTDRSRLGCQICLTKSMDNMTVRVPETVADARQSIDVGKTS [V55E], under setting [1], the “scaled log2 fold change” value was -0.307. Consider MAAAGGARLLRAASAVLGGPAGRWLHHAGSRAGSSGLLRNRGPGGSAEASRSLSCSARARSSSEDKITVHFINRDGETLTTKGKVGDSLLDVVVENNLDIDGFGACEGTLACSTCHLIFEDHIYEKLDAITDEENDMLDLAYGLTDRSRLGCQICLTKSMDNMTVRVPETVADARQSIDVGKTS [V55C], for which the “scaled log2 fold change” value under setting [1] turned out to be 0.313 and the “scaled log2 fold change” value under setting [2] worked out at 0.374. For MAAAGGARLLRAASAVLGGPAGRWLHHAGSRAGSSGLLRNRGPGGSAEASRSLSHSARARSSSEDKITVHFINRDGETLTTKGKVGDSLLDVVVENNLDIDGFGACEGTLACSTCHLIFEDHIYEKLDAITDEENDMLDLAYGLTDRSRLGCQICLTKSMDNMTVRVPETVADARQSIDVGKTS [V55H], the “scaled log2 fold change” value came out at 0.0403 under setting [1] and 1.23 under setting [2]. For the variant MAAAGGARLLRAASAVLGGPAGRWLHHAGSRAGSSGLLRNRGPGGSAEASRSLSDSARARSSSEDKITVHFINRDGETLTTKGKVGDSLLDVVVENNLDIDGFGACEGTLACSTCHLIFEDHIYEKLDAITDEENDMLDLAYGLTDRSRLGCQICLTKSMDNMTVRVPETVADARQSIDVGKTS [V55D], under setting [1], the “scaled log2 fold change” value was -0.0142. On to MAAAGGARLLRAASAVLGGPAGRWLHHAGSRAGSSGLLRNRGPGGSAEASRSLSNSARARSSSEDKITVHFINRDGETLTTKGKVGDSLLDVVVENNLDIDGFGACEGTLACSTCHLIFEDHIYEKLDAITDEENDMLDLAYGLTDRSRLGCQICLTKSMDNMTVRVPETVADARQSIDVGKTS [V55N], for which the “scaled log2 fold change” value is -0.28 under setting [1] and 0.815 under setting [2].

With MAAAGGARLLRAASAVLGGPAGRWLHHAGSRAGSSGLLRNRGPGGSAEASRSLSFSARARSSSEDKITVHFINRDGETLTTKGKVGDSLLDVVVENNLDIDGFGACEGTLACSTCHLIFEDHIYEKLDAITDEENDMLDLAYGLTDRSRLGCQICLTKSMDNMTVRVPETVADARQSIDVGKTS [V55F], the “scaled log2 fold change” value is 0.0901 under setting [1] and -0.339 under setting [2]. The like results for MAAAGGARLLRAASAVLGGPAGRWLHHAGSRAGSSGLLRNRGPGGSAEASRSLSMSARARSSSEDKITVHFINRDGETLTTKGKVGDSLLDVVVENNLDIDGFGACEGTLACSTCHLIFEDHIYEKLDAITDEENDMLDLAYGLTDRSRLGCQICLTKSMDNMTVRVPETVADARQSIDVGKTS [V55M] were, in that order, 0.374 and 0.955.

The record behind these values is the supplement of paper PMC12855868.
